Numbering of substitutions follows the chain as printed. In names and notes the source's numbering stands. Entries after “also recorded” stand apart in the source; their conditions may differ. Where two headings read alike, the source gives them in different places. Marks after values point to notes of the source that are not given here.
Assays:
[1] = substrate: C[C@H](CCC(=O)O)[C@H]1CC[C@H]2[C@@H]3C(=O)C[C@@H]4CC(=O)CC[C@]4(C)[C@H]3CC(=O)[C@]12C; test: cells, lysate or membranes named; details: pH 8.0, 25.0 °C
[2] = substrate: NC(=O)C1=CN([C@@H]2O[C@H](COP(=O)(O)OP(=O)(O)OC[C@H]3O[C@@H](n4cnc5c(N)ncnc54)[C@H](O)[C@@H]3O)[C@@H](O)[C@H]2O)C=CC1; test: purified protein, by the assay type; details: other: Table 15, substrate NADH; without tag; apparent values; pH 8.0; 25.0 °C
[3] = substrate: C[C@H](CCC(=O)O)[C@H]1CC[C@H]2[C@@H]3C(=O)C[C@@H]4CC(=O)CC[C@]4(C)[C@H]3CC(=O)[C@]12C; test: Kinetics of 3α-HSDH [T188G], N-terminal His tag; format: biochemical, Comamonas testosteroni; details: other: Table 14, substrate DHCA, apparent values, pH 8.0
Description: (§1) The activity of the 3α-HSDH and of the mutants was determined using a photometric assay, where the decrease in absorbance was measured at 340 nm over a period of 30 seconds.
(§2) The targeted exchange of amino acid radicals was performed analogously to Example 2B.
(§3) Following cultivation and expression, the cells were harvested, and the specific activities of the cell-free crude extracts were determined at substrate concentrations of 10 mM DHCA. The enzyme variants where the activity measurements with crude extract enzyme were most promising were purified by means of Ni-NTA chromatography, and their kinetic constants were determined by measurements with different DHCA concentrations of between 10 μM and 20 mM. In addition, an expression check by means of SDS PAGE was carried out for all mutants.

[4] = substrate: NC(=O)C1=CN([C@@H]2O[C@H](COP(=O)(O)OP(=O)(O)OC[C@H]3O[C@@H](n4cnc5c(N)ncnc54)[C@H](O)[C@@H]3O)[C@@H](O)[C@H]2O)C=CC1; test: Michaelis-Menten kinetics of wild-type 3α-HSDH with N-terminal His tag; format: biochemical, Comamonas testosteroni; details: other: Table 15, substrate NADH, apparent values, pH 8.0
Text: The His-tag allows for very simple purification of the HSDH protein since this sequence is bound with high specificity by specific chromatographic material (NTA (Ni-nitrilotriacetate)-modified support material, loaded with divalent nickel ions, for example “His Pur Ni-NTA” (Nimagen B. V., Nijmegen, The Netherlands)). To this end, the cell-free crude extract is applied to a dropping column comprising this material, which dropping column has previously been equilibrated with the disruption buffer (3 to 5 column volumes). Weakly binding protein was removed by washing with 3 to 5 column volumes of wash buffer (20 mM imidazole, 50 mM sodium phosphate, 300 mM NaCl, pH 8). The His-tag-3α-HSDH protein was eluted with imidazole-comprising elution buffer (250 mM imidazole, 50 mM sodium phosphate, 300 mM NaCl, pH 8). The process was carried out at room temperature. The imidazole which was present was to be removed by buffer exchange.
as §1, §2
as §3, with “and their kinetic constants were determined by measurements with different DHCA concentrations of between 10 μM and 20 mM.” left out

3α-HSDH; substrate DHCA [5] = target: T1, 3α-HSDH; substrate DHCA (Comamonas testosteroni, UniProt P80702); format: biochemical
T1 sequence (P80702 whole entry, looked up): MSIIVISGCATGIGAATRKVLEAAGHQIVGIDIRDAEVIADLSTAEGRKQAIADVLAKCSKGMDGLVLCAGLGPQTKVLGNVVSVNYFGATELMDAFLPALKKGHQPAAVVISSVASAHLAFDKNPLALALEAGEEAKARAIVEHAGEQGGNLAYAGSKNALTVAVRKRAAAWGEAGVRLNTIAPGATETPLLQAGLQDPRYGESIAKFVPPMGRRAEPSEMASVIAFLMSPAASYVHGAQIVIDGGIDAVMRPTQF

3α-HSDH; substrate DHCA [6] = target: 3α-HSDH; substrate DHCA (Comamonas testosteroni, UniProt P80702, R34N); format: biochemical; details: versus wild type
3α-HSDH; substrate DHCA [7] = format: biochemical, Comamonas testosteroni
3α-HSDH; substrate DHCA [8] = target: 3α-HSDH; substrate DHCA (Comamonas testosteroni, UniProt P80702, L68A/R34N); format: biochemical; details: purified enzyme
3α-HSDH; substrate DHCA [9] = format: biochemical, Comamonas testosteroni; details: substrate DHCA; FIGS. 8A-8B; listed as dual mutant
[10] = other: crude extract (without His tag), DHCA, read from the diagram
[11] = Table 4, variants modified at position 34
[12] = Table 9, crude extract, dual mutant position 34 and 68
[13] = Table 7, variants modified at position 68

B1: Comamonas testosteroni 3α-HSDH, wild type, without His tag, SEQ ID NO:4 (Comamonas testosteroni) (protein)
chain: T1 sequence (P80702 whole entry, looked up)
Which results are given for B1?
Km [1, 10]: 200* μM; Vmax [1, 10]: 25 µmol/min/mg; Km [2]: 46.9 ± 5.9 µM; Vmax [2]: 186 µmol/min/mg; kcat [2]: 88.5 s⁻¹; kcat/Km [2]: 1.88e+06 M⁻¹ s⁻¹

B2: Comamonas testosteroni 3α-HSDH mutant [T188G], N-terminal hexahistidine tag (Comamonas testosteroni; T188G) (protein)
chain: T1 sequence (P80702 whole entry, looked up) with T188G
B2 was tested. Which Km [3] did it give?
The Km was 1458 ± 182.6 µM.

And the Vmax [3]?
Its Vmax is 20.3 ± 0.8 U/mg.

And the kcat [3]?
The kcat was 9.6 s⁻¹.

B3: Comamonas testosteroni 3α-HSDH, wild type, N-terminal hexahistidine tag (Comamonas testosteroni) (protein)
chain: T1 sequence (P80702 whole entry, looked up)
Which Km [4] does the source give for B3 here?
The Km was 59.2 ± 6.9 µM.

What about the Vmax [4] of the same molecule?
Its Vmax is 109 µmol/min/mg.

What about the kcat [4] of the same molecule?
Its kcat is 47.1 s⁻¹.

What about the kcat/Km [4] of the same molecule?
The kcat/Km was 796000 M⁻¹ s⁻¹.

B4: Crude extract (without His tag): non-tagged wild-type 3α-HSDH of Comamonas testosteroni (SEQ ID NO: 4) (protein, listed as Comamonas testosteroni)
chain: T1 sequence (P80702 whole entry, looked up)
Which “DHCA concentration at which maximum activity is reached” value (3α-HSDH; substrate DHCA [5]) does the source give for B4 here?
The value was “approximately 1 mM”.

B5: Comamonas testosteroni 3α-HSDH, wild type, C-terminal 9×His tag (SEQ ID NO: 51) (Comamonas testosteroni) (protein)
chain: MSIIVISGCATGIGAATRKVLEAAGHQIVGIDIRDAEVIADLSTAEGRKQAIADVLAKCSKGMDGLVLCAGLGPQTKVLGNVVSVNYFGATELMDAFLPALKKGHQPAAVVISSVASAHLAFDKNPLALALEAGEEAKARAIVEHAGEQGGNLAYAGSKNALTVAVRKRAAAWGEAGVRLNTIAPGATETPLLQAGLQDPRYGESIAKFVPPMGRRAEPSEMASVIAFLMSPAASYVHGAQIVIDGGIDAVMRPTQFLEHHHHHHHHH
With B5 as the molecule, how does the Km ([1]; other: His tag length 9, DHCA 10 μM-10 mM, NADH 0.2 mM, purified) read?
Its Km is 70.5 ± 14.2 µM.

B6: 3α-HSDH [R34N] (protein)
chain: MSIIVISGCATGIGAATRKVLEAAGHQIVGIDINDAEVIADLSTAEGRKQAIADVLAKCSKGMDGLVLCAGLGPQTKVLGNVVSVNYFGATELMDAFLPALKKGHQPAAVVISSVASAHLAFDKNPLALALEAGEEAKARAIVEHAGEQGGNLAYAGSKNALTVAVRKRAAAWGEAGVRLNTIAPGATETPLLQAGLQDPRYGESIAKFVPPMGRRAEPSEMASVIAFLMSPAASYVHGAQIVIDGGIDAVMRPTQFLEHHHHHH
What does the source list for B6?
activity improved (best mutant at position 34) (3α-HSDH; substrate DHCA [6]): approx. 3 fold; Specific activity (3α-HSDH; substrate DHCA [7]; [11]): 3.0 U/mg; Volumetric activity (3α-HSDH; substrate DHCA [7]; [11]): 58.0 U/ml

B7: 3α-HSDH [R34N/L68A] (protein)
chain: B6 chain with L68A
Which results are given for B7?
Specific activity (3α-HSDH; substrate DHCA [7]; [12]): 4.5 U/mg; Volumetric activity (3α-HSDH; substrate DHCA [7]; [12]): 139.7 U/ml; increase of the maximum activity over the wild type (3α-HSDH; substrate DHCA [8]): approx. 25%; activity compared with the wild type with His tag (courses of Michaelis-Menten kinetics) (3α-HSDH; substrate DHCA [9]): not being quite as active as the wild type at low substrate concentrations; also recorded: markedly higher activities than the wild-type enzyme at higher substrate concentrations

B8: 3α-HSDH (WT): Comamonas testosteroni 3α-HSDH wild type, C-terminally extended by His-Tag LEHHHHHH (SEQ ID NO: 5) (protein)
chain: B6 chain with N34R
modifications: C-terminal His-tag LEHHHHHH
With B8 as the molecule, how does the Specific activity (3α-HSDH; substrate DHCA [7]; [11]) read?
Its Specific activity is 2.1 U/mg.

What about the Volumetric activity (3α-HSDH; substrate DHCA [7]; [11]) of the same molecule?
The Volumetric activity was 38.0 U/ml.

What about the Specific activity (3α-HSDH; substrate DHCA [7]; [13]) of the same molecule?
The Specific activity was 2.1 U/mg.

And the Volumetric activity (3α-HSDH; substrate DHCA [7]; [13])?
The Volumetric activity was 44.9 U/ml.

What about the Specific activity (3α-HSDH; substrate DHCA [7]; [12]) of the same molecule?
Its Specific activity is 2.1 U/mg.

What about the Volumetric activity (3α-HSDH; substrate DHCA [7]; [12]) of the same molecule?
Its Volumetric activity is 44.9 U/ml.

And the substrate excess inhibition (3α-HSDH; substrate DHCA [5])?
The substrate excess inhibition was “no longer demonstrates the pronounced substrate excess inhibition”.

Source: US10487348B2, “3-alpha-hydroxysteroid dehydrogenase mutants and process for the preparation of ursodeoxycholic acid” (Pharmazell GmbH, priority 2014, dated 2019)
